From patent US7943731, “Dimerizing peptides” (Massachusetts Institute of Technology)

B1: single Zif12 site mutant duplex (dsDNA)
DNA 1: GGTTGCAGTGGGCGTATGCTCAGTACTTGAACGTAACG
DNA 2: CGTTACGTTCAAGTACTGAGCATACGCCCACTGCAACC
modifications: [none]
B2: phage-selection target duplex, inverted repeat (dsDNA)
DNA 1: GGTTGCAGTGGGCGCGCCCACAGTACTTGAACGTAACG
DNA 2: CGTTACGTTCAAGTACTGTGGGCGCGCCCACTGCAACC

Assays:
fusion peptide 1-Zif12 [1] = biological target: T1, fusion peptide 1-Zif12 (synthetic 15-mer + Zif268, UniProt P08046 P08046:335-391); assay: EMSA; little or no activity with single site; conditions: tags: N-terminal Met-Ala, leader peptide; chain copies: 2 stated; label: 32P end-label (Klenow)
T1 sequence (P08046 335-391, one chain of several): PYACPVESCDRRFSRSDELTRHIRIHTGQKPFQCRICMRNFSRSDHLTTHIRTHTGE
Description: (§1) Figure 4B: FIG. 4(A) Sequences of peptide extensions (SEQ ID NOS: 24-29) isolated from the initial selection. Numbers in parentheses give the frequency of occurrences among the 45 clones sequenced. The clones for peptide 2 included a Glu-21-to-Asp mutation in the zinc finger region that may have been partially responsible for the affinity of this peptide. (B) Gel mobility-shift assays using purified fusion peptides 1, 3, and 5. Protein (2.5 µM, 250 nM, 25 nM, 250 pM, and no protein) was incubated with DNA containing either an inverted repeat of Zif12 sites or a single Zif12 site and then electrophoresed through native polyacrylamide gels. The reduced mobility of the inverted repeat probe in the presence of protein indicates the formation of protein-DNA complexes. Similar results were obtained with fusion peptides 2 and 6. Binding of peptide 4 depend on disulfide bond formation.
(§2) To assess their DNA-binding activity, peptides obtained in these initial selections were expressed in *Escherichia coli* (as fusions with Zif12), purified, and tested in gel mobility-shift assays (FIG. 4B). These fusion peptides bound specifically to duplex DNA containing an inverted repeat of the Zif12 sites, showing little or no activity with DNA containing a single site. The complexes with the inverted-repeat site all migrated similarly in the gel, with a mobility for the complexes that was consistent with the formation of dimers.

fusion peptide 3-Zif12 [2] = biological target: T2, fusion peptide 3-Zif12 (synthetic 15-mer + Zif268, UniProt P08046 P08046:335-391); assay: EMSA; little or no activity with single site; conditions: tags: N-terminal Met-Ala, leader peptide; chain copies: 2 stated; label: 32P end-label (Klenow)
T2 sequence (P08046 335-391, one chain of several): as above
Description: as §1, §2

fusion peptide 6-Zif12 [3] = biological target: T3, fusion peptide 6-Zif12 (synthetic 15-mer + Zif268, UniProt P08046 P08046:335-391); assay: EMSA; little or no activity with single site; conditions: tags: N-terminal Met-Ala, leader peptide; chain copies: 2 stated; label: 32P end-label (Klenow)
T3 sequence (P08046 335-391, one chain of several): as above
Description: as §1, §2

fusion peptide 5-Zif12 [4] = biological target: T4, fusion peptide 5-Zif12 (synthetic 15-mer + Zif268, UniProt P08046 P08046:335-391); assay: EMSA; little or no activity with single site; conditions: tags: N-terminal Met-Ala, leader peptide; chain copies: 2 stated; label: 32P end-label (Klenow)
T4 sequence (P08046 335-391, one chain of several): as above
Description: as §1, §2

[5] = biological target: Zif12 (fingers 1-2 of Zif268) (UniProt P08046 P08046:333-390); assay: EMSA; no shift under these conditions; conditions: tags: Gly-Ser dipeptide left at N terminus after GST removal; chain copies: 2 inferred (essentially noncooperative, one per half-site); label: 32P end-label (Klenow)
Zif12 (fingers 1-2 of Zif268), sequence (P08046 333-390, one chain of several): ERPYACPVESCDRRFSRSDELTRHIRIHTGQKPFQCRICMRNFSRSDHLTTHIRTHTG
Description: as §1
as §2, with “The complexes with the inverted-repeat site all migrated similarly in the gel, with a mobility for the complexes that was consistent with the formation of dimers.” left out

fusion peptide 6-Zif12 [6] = biological target: T3, fusion peptide 6-Zif12; assay: EMSA; similar results to peptides 1, 3, 5; conditions: tags: N-terminal Met-Ala, leader peptide; chain copies: 2 stated; label: 32P end-label (Klenow)
Description: as §1
as §2, with “The complexes with the inverted-repeat site all migrated similarly in the gel, with a mobility for the complexes that was consistent with the formation of dimers.” left out

fusion peptide 1-Zif12 [7] = biological target: T1, fusion peptide 1-Zif12; assay: EMSA; up to 2.5 uM protein; conditions: tags: N-terminal Met-Ala, leader peptide; chain copies: 2 stated; label: 32P end-label (Klenow)
Description: as §1, §2

fusion peptide 3-Zif12 [8] = biological target: T2, fusion peptide 3-Zif12; assay: EMSA; up to 2.5 uM protein; conditions: tags: N-terminal Met-Ala, leader peptide; chain copies: 2 stated; label: 32P end-label (Klenow)
Description: as §1, §2

fusion peptide 5-Zif12 [9] = biological target: T4, fusion peptide 5-Zif12; assay: EMSA; up to 2.5 uM protein; conditions: tags: N-terminal Met-Ala, leader peptide; chain copies: 2 stated; label: 32P end-label (Klenow)
Description: as §1, §2

Binder	binding result (fusion peptide 1-Zif12 [1])	binding result (fusion peptide 3-Zif12 [2])	binding result (fusion peptide 6-Zif12 [3])	binding result (fusion peptide 5-Zif12 [4])	binding result [5]	binding result (fusion peptide 6-Zif12 [6])	binding result (fusion peptide 1-Zif12 [7])	binding result (fusion peptide 3-Zif12 [8])	binding result (fusion peptide 5-Zif12 [9])
B1	no binding	no binding	no binding	no binding	no binding				
B2					no binding	binds	binds	binds	binds
